The source of these data is US20110263454A1, “Methods of Identifying Functional Characteristics of Promoters, Transcription Modifying Proteins and Transcription Modulating Agents” (Salk Institute for Biological Studies, priority 2008, published 2011).

Experiment [1] relates to hCAR promoter. The experiment in a line: NHR-promoter luciferase screen, hCAR promoter. Type of experiment: cell-based, human. Particulars: for luciferase activity normalized to lacZ activity and to a control, hCAR: hCAR promoter-luciferase, CV-1 cells, NHR +/- ligand, control = 1.00; for Luc. act., normalized to lacZ / Normalized Luc. act., normalized to control: hCAR promoter, HR/ligand component. The protocol:
(§1) The use, feasibility, and reproducibility of the functional NHR-promoter screen in a 48-well format have been tested validated. Briefly, there were co-expressed 50 ng of each NHR/NHR homodimer or NHR/RXR heterodimer with 100 ng promoter/luciferase construct and 50 ng of LacZ (as a control for transfection efficiency) in CV-1 cells using Fugene HD (Roche) as a transfection reagent (alternatively or additionally, a CMV-YFP construct can be used as a transfection control). Each of the nuclear hormone receptors that were used in these experiments was cloned into a pcDNA3.1 vector and comprised a C-terminally linked V5H6 tag. Twenty-four hours after transfection, appropriate ligands were added, where applicable, (see Table 5 for various ligands and concentrations and after 48 hrs, samples were assayed for luciferase and LacZ activity. To measure for luciferase activity 15 ul of sample was added to 30 ul of luciferase buffer (20 mM tricine, 1.07 mM MgCarbonate, 2.67 mM MgSulfate, 0.1 mM Naz-EDTA, 5 mM DTT, 5 mM ATP, 0.15 mg/ml CoA, 0.5 mM Luciferin), mixed briefly, and run in a Perkin Elmer Victor 5 luminometer. Thus, the functional NHR-promoter screen was used to observe the transcriptional activity of 29 promoters from various physiological pathways including inflammation, lipid and sugar metabolism, cholesterol transport, xenobiotic metabolism, and circadian rhythm.
(§2) The promoters that facilitate transcription of the indicated gene products that were tested using the protocols described herein are listed in the first row of the table. The nuclear hormone receptors and, where applicable, ligands that were assayed for their transcriptional effects on the promoters are listed in the first column of the table. The data represent the luciferase activity of each sample normalized to both the lacZ activity of that sample and to a control, e.g., no NHR or ligand, as customary in the art. As described previously, these normalizations allow the transcriptional activity of each reporter cell to be compared to other samples.
(§3) Tables 7-40 show the transcriptional effects of the hormone receptors, and, where applicable, ligands (orphan receptors are screened without ligand), on each individual promoter. […] The control data of each table are shown in their last rows.

In experiment [2] the test system is mPgc1b promoter. Nature of the experiment: NHR-promoter luciferase screen, mPgc1b promoter. Particulars: for Luc. act., normalized to lacZ / Normalized Luc. act., normalized to control: PGC1b promoter reporter, co-transfected HR, without or with its ligand; for Normalized Luc. act., normalized to control: relative to control; for luciferase activity normalized to lacZ activity and to a control, mPgc1b: mPgc1b promoter-luciferase, CV-1 cells, NHR +/- ligand, control = 1.00. Type of experiment: cell-based, mouse. The protocol: Briefly, there were co-expressed 50 ng of each NHR/NHR homodimer or NHR/RXR heterodimer with 100 ng promoter/luciferase construct and 50 ng of LacZ (as a control for transfection efficiency) in CV-1 cells using Fugene HD (Roche) as a transfection reagent (alternatively or additionally, a CMV-YFP construct can be used as a transfection control). Each of the nuclear hormone receptors that were used in these experiments was cloned into a pcDNA3.1 vector and comprised a C-terminally linked V5H6 tag.
as §2, §3

Experiment [3] deals with hG6PD promoter. Nature of the experiment: NHR-promoter luciferase screen, hG6PD promoter. Format: cell-based, human. Particulars: for Luc. act., normalized to lacZ / Normalized Luc. act., normalized to control: G6PD promoter reporter, co-transfected HR, without or with its ligand; for Normalized Luc. act., normalized to control: relative to control; for luciferase activity normalized to lacZ activity and to a control, hG6PD: hG6PD promoter-luciferase, CV-1 cells, NHR +/- ligand, control = 1.00. As to the method: as §1, §2, §3

Experiment [4] concerns MCP-1 promoter. Nature of the experiment: NHR-promoter luciferase screen, MCP-1 promoter. Format: cell-based. Particulars: for Normalized Luc. act., normalized to control / Luc. act., normalized to lacZ: MCP-1 promoter reporter; for Normalized Luc. act., normalized to control: HR without or with its ligand, relative to control; for Luc. act., normalized to lacZ: hormone receptor (HR) without or with its ligand; for mMCP-1 promoter reporter activity: transcription factor +/- ligand, control = 1.00. The protocol:
as §1, §2, §3

Experiment [5] deals with mADRP promoter. Nature of the experiment: NHR-promoter luciferase screen, mADRP promoter. Type of experiment: cell-based, mouse. The settings on record: for Luc. act., normalized to lacZ / Normalized Luc. act., normalized to control: ADRP promoter, HR/ligand component; for mADRP promoter reporter activity: transcription factor +/- ligand, control = 1.00. The protocol: as §1, §2, §3

The test system of experiment [6] is SREBP1c promoter. The experiment in a line: NHR-promoter luciferase screen, SREBP1c promoter. Format: cell-based, mouse. The settings on record: for Luc. act., normalized to lacZ / Normalized Luc. act., normalized to control: SREBP1c promoter, HR component without or with ligand; for mSREBP1-c promoter reporter activity: transcription factor +/- ligand, control = 1.00. As to the method:
as §1, §2, §3

B1: RORa: RAR-related Orphan Receptor α (NR1F1), cDNA driver (protein, UniProt P35398 1-523, looked up)
Nuclear receptor ROR-alpha: MESAPAAPDPAASEPGSSGADAAAGSRETPLNQESARKSEPPAPVRRQSYSSTSRGISVTKKTHTSQIEIIPCKICGDKSSGIHYGVITCEGCKGFFRRSQQSNATYSCPRQKNCLIDRTSRNRCQHCRLQKCLAVGMSRDAVKFGRMSKKQRDSLYAEVQKHRMQQQQRDHQQQPGEAEPLTPTYNISANGLTELHDDLSNYIDGHTPEGSKADSAVSSFYLDIQPSPDQSGLDINGIKPEPICDYTPASGFFPYCSFTNGETSPTVSMAELEHLAQNISKSHLETCQYLREELQQITWQTFLQEEIENYQNKQREVMWQLCAIKITEAIQYVVEFAKRIDGFMELCQNDQIVLLKAGSLEVVFIRMCRAFDSQNNTVYFDGKYASPDVFKSLGCEDFISFVFEFGKSLCSMHLTEDEIALFSAFVLMSADRSWLQEKVKIEKLQQKIQLALQHVLQKNHREDGILTKLICKVSTLRALCGRHTEKLMAFKAIYPDIVRLHFPPLYKELFTSEFEPAMQIDG
On to B1, for which, in experiment [1], the “luciferase activity normalized to lacZ activity and to a control, hCAR” value turned out to be 0.58; the “Luc. act., normalized to lacZ” value turned out to be 18.2; the “Normalized Luc. act., normalized to control” value is given as 0.6. Besides, in experiment [2], the “Luc. act., normalized to lacZ” value is 10.8; the “Normalized Luc. act., normalized to control” value is on record as 0.9; the “luciferase activity normalized to lacZ activity and to a control, mPgc1b” value came out at 0.91. Also, in experiment [3], the “Luc. act., normalized to lacZ” value is listed as 74.0; the “Normalized Luc. act., normalized to control” value was found to be 2.0; the “luciferase activity normalized to lacZ activity and to a control, hG6PD” value is 1.98. Moreover, in experiment [4], the “Normalized Luc. act., normalized to control” value was determined as 1.4; the “Luc. act., normalized to lacZ” value was found to be 150.7; the “mMCP-1 promoter reporter activity” value came to 1.41. Also, in experiment [5], the “Luc. act., normalized to lacZ” value was found to be 976.2; the “Normalized Luc. act., normalized to control” value worked out at 2.0; the “mADRP promoter reporter activity” value was 1.96. In experiment [6], the “Luc. act., normalized to lacZ” value is 410.8; the “Normalized Luc. act., normalized to control” value is recorded as 1.3; the “mSREBP1-c promoter reporter activity” value is 1.28.

B2: LXRb: Liver X Receptor β (NR1H2), cDNA driver (protein, UniProt P55055 1-460, looked up)
Oxysterols receptor LXR-beta: MSSPTTSSLDTPLPGNGPPQPGAPSSSPTVKEEGPEPWPGGPDPDVPGTDEASSACSTDWVIPDPEEEPERKRKKGPAPKMLGHELCRVCGDKASGFHYNVLSCEGCKGFFRRSVVRGGARRYACRGGGTCQMDAFMRRKCQQCRLRKCKEAGMREQCVLSEEQIRKKKIRKQQQESQSQSQSPVGPQGSSSSASGPGASPGGSEAGSQGSGEGEGVQLTAAQELMIQQLVAAQLQCNKRSFSDQPKVTPWPLGADPQSRDARQQRFAHFTELAIISVQEIVDFAKQVPGFLQLGREDQIALLKASTIEIMLLETARRYNHETECITFLKDFTYSKDDFHRAGLQVEFINPIFEFSRAMRRLGLDDAEYALLIAINIFSADRPNVQEPGRVEALQQPYVEALLSYTRIKRPQDQLRFPRMLMKLVSLRTLSSVHSEQVFALRLQDKKLPPLLSEIWDVHE
As to B2, in experiment [1], the “luciferase activity normalized to lacZ activity and to a control, hCAR” value is reported as 1.44; the “Luc. act., normalized to lacZ” value stood at 45.5; the “Normalized Luc. act., normalized to control” value was 1.4. In experiment [2], the “Luc. act., normalized to lacZ” value worked out at 4.69; the “Normalized Luc. act., normalized to control” value is reported as 0.4; the “luciferase activity normalized to lacZ activity and to a control, mPgc1b” value is on record as 0.40. In addition, in experiment [3], the “Luc. act., normalized to lacZ” value is reported as 46.8; the “Normalized Luc. act., normalized to control” value was determined as 1.3; the “luciferase activity normalized to lacZ activity and to a control, hG6PD” value is listed as 1.25. In addition, in experiment [4], the “Normalized Luc. act., normalized to control” value stood at 1.9; the “Luc. act., normalized to lacZ” value was determined as 198.9; the “mMCP-1 promoter reporter activity” value amounted to 1.86. In experiment [5], the “Luc. act., normalized to lacZ” value was determined as 1191.8; the “Normalized Luc. act., normalized to control” value is 2.4; the “mADRP promoter reporter activity” value was 2.40. Moreover, the “regulation of the SREBP1c promoter” value in experiment [6] (FIG. 2b, in words) was “specific and strong activation”. Moreover, in experiment [6], the “Luc. act., normalized to lacZ” value amounted to 4020.7; the “Normalized Luc. act., normalized to control” value was 12.5; the “mSREBP1-c promoter reporter activity” value came out at 12.48.
